Laboratory results as given in publication doi:10.1101/2019.12.18.881029 (bioRxiv, 2019).

These binders were tested against recombinant human TNFa (Shanghai Primegene Bi-Tech) (Homo sapiens, UniProt P01375).
Sequence of recombinant human TNFa (Shanghai Primegene Bi-Tech) (P01375 whole entry): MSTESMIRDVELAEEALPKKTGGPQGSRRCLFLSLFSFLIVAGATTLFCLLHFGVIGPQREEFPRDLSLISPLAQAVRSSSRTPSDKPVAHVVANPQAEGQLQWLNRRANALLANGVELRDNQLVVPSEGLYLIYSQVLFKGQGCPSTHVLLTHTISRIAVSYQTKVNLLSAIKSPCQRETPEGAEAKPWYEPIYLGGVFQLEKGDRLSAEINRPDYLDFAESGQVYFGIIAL

| binding result | Binder |
| --- | --- |
| binds | 101 (antibody, V domains shown) VH: QSVKESEGGLFKPTDTLTLTCTVSGFSLSRYGVSWVRQAPGSGLQWIGAIGETGRAYYANWAKSRSTITRNTNVNTVTLKMTSLTAADTATYFCARGEEFNNGWGAFNIWGPGTLVTVSS VL: AYDMTQTPASVSEPVGGTVTIKCQASENIYTSLAWYQQKPGQPPKLLIYSASTLASGVPSRFKGSGSGTEFTLTISDLECADAASYYCQQGFATSNVENPFGGGTEVVVK |
| binds | 810 (antibody, V domains shown) VH: QSVKESEGGLFKPADTLTLTCTVSGFSLSRYGVSWVRQAPGNGLEWIGTIGEAGRAYYANWARSRSTITRTTNLNTVTLTMTSLTAADTATYFCARGEVFNNGWGAFNIWGPGTLVTVSS VL: AYDMTQTPASVSEPVGGTVTIKCQASESIYSGLAWYQQKPGQPPKLLIYQASTLASGVSSRFKGSGSGTDFTLAISDLECADAATYYCQQGFGTSNVENPFGGGSEVVVK |
| binds | 877 (antibody, V domains shown) VH: QSVKESEGGLFKPTDTLTLTCTVSGFSLSRYGVTWVRQAPGNGLQWIGTIGETGRSYYASWAKSRSTVTRNTNENTVTLKMTSLTAADTATYFCARGELFNNGWGAFNIWGPGTLVTVSS VL: AYDMTQTPASVSEPVGGTVTIKCQASENIYSSLAWYQQKPGQPPKLLIYSASTLASGVSSRFKGSGSGTEFTLTISGVQCEDAATYYCQQGFGTNNVENPFGGGTEVVVK |
